# Data taken from US6436691B1, “Chemical compounds” (Zeneca Limited, priority 1995, dated 2002).
# Changes are numbered by the printed parent chain. In names and notes the source's numbering stands.
# B1: [G251Q, D253K]: HCPB mutant with G251Q and D253K (protein, UniProt P15086 111-417, looked up, variant G251Q D253K)
# Carboxypeptidase B: ATGHSYEKYNKWETIEAWTQQVATENPALISRSVIGTTFEGRAIYLLKVGKAGQNKPAIFMDCGFHAREWISPAFCQWFVREAVRTYGREIQVTELLDKLDFYVLPVLNIDGYIYTWTKSRFWRKTRSTHTGSSCIGTDPNRNFDAGWCEIGASRNPCDETYCGPAAESEKETKALADFIRNKLSSIKAYLTIHSYSQMMIYPYSYAYKLGENNAELNALAKATVKELASLHGTKYTYGPGATTIYPAAGQSKDWAYDQGIRYSFTFELRDTGRYGFLLPESQIRATCEETFLAIKYVASYVLEHLY
# B2: [A248H, D253K]: HCPB mutant with A248H and D253K (protein, UniProt P15086 111-417, looked up, variant A248H D253K)
# Carboxypeptidase B: B1 Carboxypeptidase B with A248H, Q251G
# B3: [G251V, D253K]: HCPB mutant with G251V and D253K (protein, UniProt P15086 111-417, looked up, variant G251V D253K)
# Carboxypeptidase B: B1 Carboxypeptidase B with Q251V
# B4: [G251N,D253R]: HCPB mutant with G251N and D253R, (His)6-c-myc tag (protein, UniProt P15086 111-417, looked up, variant G251N D253R)
# Carboxypeptidase B: B1 Carboxypeptidase B with Q251N, K253R
# modifications: (His)6-c-myc tag
# B5: [G251N,D253K]: HCPB mutant with G251N and D253K, (His)6-c-myc tag (protein, UniProt P15086 111-417, looked up, variant G251N D253K)
# Carboxypeptidase B: B1 Carboxypeptidase B with Q251N
# modifications: (His)6-c-myc tag
# B6: [A248S,G251T,D253K]HCPB: HCPB mutant with A248S, G251T and D253K, (His)6-c-myc tag (protein, UniProt P15086 111-417, looked up, variant A248S G251T D253K)
# Carboxypeptidase B: B1 Carboxypeptidase B with A248S, Q251T
# modifications: (His)6-c-myc tag
# B7: [A248N, G251N, D253K]: HCPB mutant with A248N, G251N and D253K, (His)6-c-myc tag (protein, UniProt P15086 111-417, looked up, variant A248N G251N D253K)
# Carboxypeptidase B: B1 Carboxypeptidase B with A248N, Q251N
# modifications: (His)6-c-myc tag
# B8: [S205N, G251N, D253K]: HCPB mutant with S205N, G251N and D253K, (His)6-c-myc tag (protein, UniProt P15086 111-417, looked up, variant S205N G251N D253K)
# Carboxypeptidase B: B1 Carboxypeptidase B with S205N, Q251N
# modifications: (His)6-c-myc tag
# B9: [G251N, D253K, T266G]: HCPB mutant with G251N, D253K and T266G, (His)6-c-myc tag (protein, UniProt P15086 111-417, looked up, variant G251N D253K T266G)
# Carboxypeptidase B: B1 Carboxypeptidase B with Q251N, T266G
# modifications: (His)6-c-myc tag
# B10: [A248S, G251N, D253K]: HCPB mutant with A248S, G251N and D253K, (His)6-c-myc tag (protein, UniProt P15086 111-417, looked up, variant A248S G251N D253K)
# Carboxypeptidase B: B1 Carboxypeptidase B with A248S, Q251N
# modifications: (His)6-c-myc tag
# B11: [A248N, G251T, D253K]: HCPB mutant with A248N, G251T and D253K, (His)6-c-myc tag (protein, UniProt P15086 111-417, looked up, variant A248N G251T D253K)
# Carboxypeptidase B: B1 Carboxypeptidase B with A248N, Q251T
# modifications: (His)6-c-myc tag
# Test: Activity against Hipp-Asp in crude E. coli periplasmic shockate relative to D253K or D253R HCPB (Example 16)
# Format: biochemical
# Settings: not given
# Source text: A number of other mutant HCPBs have been constructed in a similar manner to the methods described in Reference Examples 7 and 8, and Examples 12, 13, 14 and 15. In each case oligos were constructed to introduce specific changes in the gene sequence by methods similar to those described above. In some cases additional mutations were identified upon complete sequencing of the mutated gene, and these were presumably introduced during the PCR reactions. Mutants with enzyme activity against substrate analogues (see Example 18 below) have been identified, and examples of these are given in Table 4 below. […] This material is subsequently referred to as periplasmic shockate or shockate and is prepared by the following procedure.
# 1. A single colony was used to inoculate 75 ml of L-broth nutrient media containing 10 μg/ml tetracycline and arabinose to a final concentration of 0.01% (w/v). Incubation was performed at 20° C. with shaking (250 rpm) for about 60 hours.
# 2. The cells were then harvested by centrifugation at 4° C.
# 3. The cell pellet was re-suspended in 300 micro-liters of 20% sucrose (w/v) containing 1 mM EDTA in 200 mM Tris-HCl at pH7.5, and incubated at room-temperature for 15 minutes.
# 4. Periplasmic shockate was generated by the addition of 450 micro-liters of distilled water, and a further incubation at room-temperature for 15 minutes.
# 5. Cellular remains were removed by centrifugation, and the supernatant assayed for enzyme activity as soon as possible after preparation and kept at 4° C. prior to assay.
# (§1) The activity of [G251T,D253K]HCPB was measured using the assay conditions described in Example 17 but using either 50 μl of a neat or 1 in 10 or 1 in 100 dilution of [G251T,D253K]HCPB crude E.coli periplasmic shockate (shockate) sample in place of purified enzyme. Samples were incubated for 24 h at 37° C. […] For other HCPB mutants, the reaction volume was 250 μl and contained 125 μl of neat shockate or 1 in 50 dilution of shockate. The shockate samples were prepared as described in Example 16. The amount of Hippuric acid produced in 24 h was quantified by HPLC as described in Example 17 and the results are shown in Table 6 and are expressed as the percentage conversion of substrate into product in 24 h at 37° C.
row,Molecule,"Hipp-Asp, activity relative to D253K HCPB or D253R HCPB"
1,B1,NAD (No activity detected)
2,B2,NAD (No activity detected)
3,B3,NAD (No activity detected)

# Test: Conversion of prodrug of Example 24 to drug of Example 25 by HCPB mutants, HPLC (Example 20)
# Format: biochemical
# Settings: enzyme 15 μg/ml; 0.5 mM prodrug of Example 24; 5 minutes at 37° C.
# Description: The reaction was stopped by adding MeCN (500 μl) plus 0.2% Trifluoroacetic acid. The amount of drug produced was then quantified by HPLC.
# HPLC separation was carried out as described in Example 6 except that a mobile phase of 70% MeCN, 30% distilled water and 0.1% trifluoroacetic acid was used to achieve separation of prodrug (retention time 3.8 minutes) and drug (retention time 4.9 minutes) and the compounds were detected at 260 nm. The amount of drug produced was quantified from calibration curves generated with known amounts of drug.
# The amount of [Q54R,D145A,D253K]HCPB and [G251T,D253K]HCPB mutants was reduced to 0.75 μg in the reaction mixture.
row,Molecule,Prodrug Hydrolysis (%)
1,B4,66.7%
2,B5,75.9%

# Test: Conversion of Hipp-Asp by periplasmic shockate of HCPB mutants, 24 h (Example 18)
# Format: biochemical
# Settings: shockate concentration in reaction mixture 50 %; 24 h at 37° C.
# Description: as §1
row,Molecule,Hipp-Asp (% conversion)
1,B6,0.5%
2,B7,0%
3,B8,0%
4,B9,3.4%
5,B10,1%
6,B11,1%

# Test: Conversion of Hipp-Glu by periplasmic shockate of HCPB mutants, 24 h (Example 18)
# Format: biochemical
# Settings: shockate concentration in reaction mixture 1 %; 24 h at 37° C.
# Description: as §1
row,Molecule,Hipp-Glu (% conversion)
1,B6,20%
2,B11,53.5%

# Same assay, conditions: shockate concentration in reaction mixture 50 %; 24 h at 37° C.
row,Molecule,Hipp-Glu (% conversion)
1,B6,91.3%
2,B7,63.9%
3,B8,14.1%
4,B9,0.95%
5,B10,46.1%
6,B11,95%

# Test: Conversion of Hipp-Arg by purified HCPB mutants, 30 minutes, HPLC (Example 17)
# Format: biochemical
# Settings: enzyme 0.25 μg/ml; 0.5 mM substrate; 30 minutes at 37° C.
# Description: (§2) Purified mutants of human CPB (D253K; [G251K,D253R]; [G251N,D253R]; [I201S,D253K]; [G251N,D253K]; [Q54R,D145A,D253K]; [G251T,D253K]; [G251S,D253K]; [A248N,G251N,D253K]; [A248S,G251N,D253K] and [S205N,G251N,D253K]—described in Examples 3, 12, 13, 16, 28, 30, 31, 32 and 33) were assayed for their ability to convert hippuryl-L-glutamic acid (Hipp-Glu—Reference Example 1), hippuryl-L-aspartic acid (Hipp-Asp—Reference Example 2) and hippuryl-L-arginine (Sigma Chemical Company—cat no. H6625) to hippuric acid using a HPLC based assay similar to that described in Example 6.
# (§3) Samples were incubated for 30 minutes at 37° C. The reactions were terminated by the addition of 500 μl of 40% methanol, 60% distilled water, 0.2% trifluoro acetic acid and the amount of hippuric acid generated was quantitated by HPLC as described in Example 6 but using a mobile phase of 20% methanol, 80% 50 mM phosphate buffer, pH 6.5. Hippuric acid was detected at 230 nm. The results are shown in Table 5 and are expressed as the percentage conversion of substrate into product in 30 minutes at 37° C.
row,Molecule,Hipp-Arg (% conversion)
1,B6,0%
2,B7,0%

# Same assay, conditions: enzyme 0.5 μg/ml; 0.5 mM substrate; 30 minutes at 37° C.
row,Molecule,Hipp-Arg (% conversion)
1,B8,0%
2,B10,0%

# Same assay, conditions: enzyme 2.5 μg/ml; 0.5 mM substrate; 30 minutes at 37° C.
row,Molecule,Hipp-Arg (% conversion)
1,B4,0%
2,B5,0.4%

# Same assay, conditions: enzyme 25 μg/ml; 0.5 mM substrate; 30 minutes at 37° C.
row,Molecule,Hipp-Arg (% conversion)
1,B6,0%
2,B4,0%
3,B5,1.8%
4,B7,1.4%
5,B8,0.2%
6,B10,0%

# Test: Km and kcat of HCPB mutants with Hipp-Glu (Example 7)
# Format: biochemical
# Settings: Hipp-Glu 0.25-8.0 mM; pH 7.5; 5 h at 37° C.
# Description: Hipp-Glu and Hipp-Asp were diluted in range 0.25-8.0 mM and 0.25-5.0 mM respectively in 0.025 M Tris-HCL buffer, pH 7.5. Where necessary substrate samples were adjusted to pH 7.5 with 1M NaOH.
# Samples were incubated for 5 h at 37° C. Reactions were terminated by the addition of 500 μl methanol/distilled water (80/20) containing 0.2% TFA. The amount of hippuric acid produced was quantified by HPLC as described in Example 6.
# Km and Vmax values were calculated using the ENZFITTER software programme (Biosoft, Perkin Elmer).
Molecule,Km,"kcat, Hipp-Glu"
B6,1100 µM,19 s⁻¹
B5,2300 µM,24 s⁻¹

# Test: Conversion of Hipp-Glu by purified HCPB mutants, 30 minutes, HPLC (Example 17)
# Format: biochemical
# Settings: enzyme 0.25 μg/ml; 0.5 mM substrate; 30 minutes at 37° C.
# Description: as §2, §3
row,Molecule,Hipp-Glu (% conversion)
1,B6,14.5%
2,B7,25.3%

# Same assay, conditions: enzyme 0.5 μg/ml; 0.5 mM substrate; 30 minutes at 37° C.
row,Molecule,Hipp-Glu (% conversion)
1,B8,7.9%
2,B10,10.7%

# Same assay, conditions: enzyme 2.5 μg/ml; 0.5 mM substrate; 30 minutes at 37° C.
row,Molecule,Hipp-Glu (% conversion)
1,B4,8.8%
2,B5,62.4%

# Same assay, conditions: enzyme 25 μg/ml; 0.5 mM substrate; 30 minutes at 37° C.
row,Molecule,Hipp-Glu (% conversion)
1,B6,93%
2,B4,57%
3,B5,100%
4,B7,100%
5,B8,85%
6,B10,86%

# Test: Conversion of Hipp-Asp by purified HCPB mutants, 30 minutes, HPLC (Example 17)
# Format: biochemical
# Settings: enzyme 0.25 μg/ml; 0.5 mM substrate; 30 minutes at 37° C.
# Description: as §2, §3
row,Molecule,Hipp-Asp (% conversion)
1,B6,0%
2,B7,0.6%

# Same assay, conditions: enzyme 0.5 μg/ml; 0.5 mM substrate; 30 minutes at 37° C.
row,Molecule,Hipp-Asp (% conversion)
1,B8,0%
2,B10,0%

# Same assay, conditions: enzyme 2.5 μg/ml; 0.5 mM substrate; 30 minutes at 37° C.
row,Molecule,Hipp-Asp (% conversion)
1,B4,1.4%
2,B5,1.9%

# Same assay, conditions: enzyme 25 μg/ml; 0.5 mM substrate; 30 minutes at 37° C.
row,Molecule,Hipp-Asp (% conversion)
1,B6,5.5%
2,B4,9.4%
3,B5,8.3%
4,B7,2.5%
5,B8,0.48%
6,B10,1.3%
